Reference: article PMC3541284 (Autophagy, 2012)

Target: 6xHis-GABARAP (UniProt O95166 1-117)
Assay: pull-down

6xHis-GABARAP, sequence (O95166 whole entry): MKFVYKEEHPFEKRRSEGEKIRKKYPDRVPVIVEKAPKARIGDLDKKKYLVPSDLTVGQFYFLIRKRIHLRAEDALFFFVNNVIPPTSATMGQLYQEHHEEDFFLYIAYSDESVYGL

binding result: binds
B1: GST-MAPK15_300–373_WT (domain or fragment, UniProt Q8TD08 300-373, looked up)
chain: QHPYVQRFHCPSDEWAREADVRPRAHEGVQLSVPEYRSRVYQMILECGGSSGTSREKGPEGVSPSQAHLHKPRA
